Earlier results in PMC5828189.

Molecular target: C1q globular head (gC1q) (Homo sapiens) (UniProt P02745)
Chain of UniProt P02745 (P02745 23-245, chain 1 of 3): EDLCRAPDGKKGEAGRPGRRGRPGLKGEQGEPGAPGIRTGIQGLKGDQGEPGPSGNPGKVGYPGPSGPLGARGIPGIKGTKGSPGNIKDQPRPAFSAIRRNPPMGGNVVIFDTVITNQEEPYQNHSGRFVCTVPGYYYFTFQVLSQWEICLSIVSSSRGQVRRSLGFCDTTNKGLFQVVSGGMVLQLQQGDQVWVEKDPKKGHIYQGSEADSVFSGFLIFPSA
Chain of UniProt P02745 (P02746 28-253, chain 2 of 3, further chain): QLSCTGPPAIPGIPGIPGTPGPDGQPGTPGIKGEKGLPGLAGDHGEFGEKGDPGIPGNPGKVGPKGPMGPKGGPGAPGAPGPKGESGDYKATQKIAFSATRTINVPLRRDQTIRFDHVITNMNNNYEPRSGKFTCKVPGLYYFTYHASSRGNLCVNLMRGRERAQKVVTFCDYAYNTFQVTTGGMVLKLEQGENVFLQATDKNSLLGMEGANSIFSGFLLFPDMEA
Chain of UniProt P02745 (P02747 29-245, chain 3 of 3, further chain): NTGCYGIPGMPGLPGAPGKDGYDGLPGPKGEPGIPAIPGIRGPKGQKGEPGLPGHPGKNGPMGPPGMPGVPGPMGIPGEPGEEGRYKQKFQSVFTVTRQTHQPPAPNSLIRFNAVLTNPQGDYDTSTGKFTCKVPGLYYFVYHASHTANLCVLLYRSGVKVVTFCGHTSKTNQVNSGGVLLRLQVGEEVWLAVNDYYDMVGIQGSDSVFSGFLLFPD

In the case of HABP1/p32/gC1qR (from UniProt Q07021), the Kd is listed as 0.075 µM.
